What was measured:
[1] = target: CECR2 bromodomain (human) (UniProt Q9BXF3); test: ITC; peptide (mM stock) titrated into bromodomain (about 50 μM), by the concentrations in the tables; 10 or 15°C, 50 mM HEPES pH 7.5, 150 mM NaCl; single binding site model
[2] = target: TAF1(1/2), tandem bromodomains of TAF1 (human) (UniProt P21675); test: as above
[3] = target: SMARCA2 bromodomain (human) (UniProt P51531); test: as above
[4] = target: BAZ2B bromodomain (human) (UniProt Q9UIF8); test: as above
PCAF bromodomain (human) = PCAF bromodomain (human) (UniProt Q92831); test: as above
[5] = target: TAF1(2), second bromodomain of TAF1 (human) (UniProt P21675); test: as above
Sequence of TAF1(2), second bromodomain of TAF1 (human) (P21675 whole entry): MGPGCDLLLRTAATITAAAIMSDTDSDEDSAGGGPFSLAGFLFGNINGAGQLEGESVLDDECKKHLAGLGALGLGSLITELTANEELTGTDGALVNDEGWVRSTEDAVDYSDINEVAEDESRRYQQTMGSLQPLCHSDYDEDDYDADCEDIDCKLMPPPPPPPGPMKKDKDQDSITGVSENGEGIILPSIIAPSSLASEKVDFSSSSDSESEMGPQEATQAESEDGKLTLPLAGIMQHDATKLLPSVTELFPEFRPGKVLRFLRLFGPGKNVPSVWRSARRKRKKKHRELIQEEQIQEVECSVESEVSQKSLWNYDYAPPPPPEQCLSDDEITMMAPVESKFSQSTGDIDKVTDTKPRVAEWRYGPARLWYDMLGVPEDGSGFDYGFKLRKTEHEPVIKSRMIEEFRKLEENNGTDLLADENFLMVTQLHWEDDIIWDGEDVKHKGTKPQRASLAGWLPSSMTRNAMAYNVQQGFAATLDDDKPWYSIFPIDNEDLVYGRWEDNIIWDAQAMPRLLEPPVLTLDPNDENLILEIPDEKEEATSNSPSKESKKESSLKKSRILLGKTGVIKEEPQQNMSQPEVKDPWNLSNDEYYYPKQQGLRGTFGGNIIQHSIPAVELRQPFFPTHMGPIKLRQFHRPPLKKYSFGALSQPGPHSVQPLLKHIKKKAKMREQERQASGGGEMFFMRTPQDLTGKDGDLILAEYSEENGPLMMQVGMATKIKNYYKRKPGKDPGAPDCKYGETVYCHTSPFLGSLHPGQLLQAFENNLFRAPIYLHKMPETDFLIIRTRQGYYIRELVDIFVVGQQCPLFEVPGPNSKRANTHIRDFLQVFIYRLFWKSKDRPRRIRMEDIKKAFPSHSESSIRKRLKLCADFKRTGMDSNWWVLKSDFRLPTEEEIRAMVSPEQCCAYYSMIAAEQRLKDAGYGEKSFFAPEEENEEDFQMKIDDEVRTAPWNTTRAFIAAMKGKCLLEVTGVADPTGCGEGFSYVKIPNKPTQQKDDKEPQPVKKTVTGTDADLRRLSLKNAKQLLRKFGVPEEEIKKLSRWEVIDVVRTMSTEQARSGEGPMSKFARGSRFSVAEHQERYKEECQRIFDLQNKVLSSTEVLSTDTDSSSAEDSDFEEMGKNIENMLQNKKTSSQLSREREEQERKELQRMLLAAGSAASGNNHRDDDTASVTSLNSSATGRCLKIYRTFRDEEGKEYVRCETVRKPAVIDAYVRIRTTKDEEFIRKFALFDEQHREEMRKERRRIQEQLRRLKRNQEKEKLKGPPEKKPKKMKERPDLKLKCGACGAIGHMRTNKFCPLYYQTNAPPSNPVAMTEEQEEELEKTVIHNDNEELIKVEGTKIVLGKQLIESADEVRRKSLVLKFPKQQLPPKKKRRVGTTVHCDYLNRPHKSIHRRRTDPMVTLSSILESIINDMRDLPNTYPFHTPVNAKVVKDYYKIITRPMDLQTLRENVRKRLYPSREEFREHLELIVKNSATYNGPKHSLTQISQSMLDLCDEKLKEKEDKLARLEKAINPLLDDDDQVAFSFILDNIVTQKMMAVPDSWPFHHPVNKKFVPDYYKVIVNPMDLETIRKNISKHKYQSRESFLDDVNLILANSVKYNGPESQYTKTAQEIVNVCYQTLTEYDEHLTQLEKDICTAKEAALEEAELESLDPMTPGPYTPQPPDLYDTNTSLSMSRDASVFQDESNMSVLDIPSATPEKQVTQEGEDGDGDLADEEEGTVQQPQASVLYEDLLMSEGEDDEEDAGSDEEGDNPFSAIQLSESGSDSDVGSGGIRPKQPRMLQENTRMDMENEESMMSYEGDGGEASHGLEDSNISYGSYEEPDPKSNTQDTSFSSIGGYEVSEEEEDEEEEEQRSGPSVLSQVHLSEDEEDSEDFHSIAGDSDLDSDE

[6] = target: CREBBP bromodomain (human) (UniProt Q92793); test: as above
Sequence of CREBBP bromodomain (human) (Q92793 1081-1197): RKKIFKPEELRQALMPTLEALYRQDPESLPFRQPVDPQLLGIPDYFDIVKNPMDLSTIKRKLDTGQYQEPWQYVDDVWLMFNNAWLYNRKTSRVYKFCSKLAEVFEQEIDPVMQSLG

[7] = target: KIAA1240 bromodomain (human) (UniProt Q9ULI0); test: as above
[8] = target: BRD3(1), first bromodomain of BRD3 (human) (UniProt Q15059); test: as above
Sequence of BRD3(1), first bromodomain of BRD3 (human) (Q15059 whole entry): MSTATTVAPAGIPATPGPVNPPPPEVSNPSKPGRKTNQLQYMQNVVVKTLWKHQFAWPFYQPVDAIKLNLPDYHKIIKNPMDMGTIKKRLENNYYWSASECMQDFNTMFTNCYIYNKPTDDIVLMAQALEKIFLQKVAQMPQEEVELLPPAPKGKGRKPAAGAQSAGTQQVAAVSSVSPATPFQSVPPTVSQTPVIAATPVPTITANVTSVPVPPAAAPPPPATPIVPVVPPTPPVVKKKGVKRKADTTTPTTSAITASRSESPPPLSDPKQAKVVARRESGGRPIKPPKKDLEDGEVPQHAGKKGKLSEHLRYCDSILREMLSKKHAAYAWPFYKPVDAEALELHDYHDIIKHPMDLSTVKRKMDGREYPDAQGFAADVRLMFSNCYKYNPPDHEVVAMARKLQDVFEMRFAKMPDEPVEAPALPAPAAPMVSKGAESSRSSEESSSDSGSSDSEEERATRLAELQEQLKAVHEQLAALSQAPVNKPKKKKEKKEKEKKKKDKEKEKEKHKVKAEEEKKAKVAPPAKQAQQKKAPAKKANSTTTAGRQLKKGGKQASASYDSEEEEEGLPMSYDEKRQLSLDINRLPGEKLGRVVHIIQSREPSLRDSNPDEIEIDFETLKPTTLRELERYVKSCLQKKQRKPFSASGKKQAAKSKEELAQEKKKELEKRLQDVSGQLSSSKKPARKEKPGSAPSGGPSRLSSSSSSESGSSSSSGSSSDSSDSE

[9] = target: BRD3(2), second bromodomain of BRD3 (human) (UniProt Q15059); test: ITC; as a1; rows with N of about 0.5 or 0.25: two or more bromodomains on one peptide, apparent binding constants, events not deconvoluted
[10] = target: BRD3(1), first bromodomain of BRD3 (human) (UniProt Q15059); test: as above
[11] = target: H3pS10K14acK18ac peptide (ITC) (human); test: ITC; VP-ITC or ITC200, 10 or 15°C, 50 mM HEPES pH 7.5, 150 mM NaCl; in most cases single binding site model
[12] = target: H3K14ac peptide (ITC) (human); test: as above
EP300 bromodomain = EP300 bromodomain (UniProt Q09472); test: SPOT peptide array, His6-BRD overlay; conditions: reference: H3K4acK9ac peptide; sites T3
[13] = target: WDR9 second bromodomain, WDR9(2) (UniProt Q9NSI6); test: SPOT peptide array, His6-BRD overlay; conditions: reference: H3K4acK9ac peptide; sites T3

Sequence of TAF1(1/2), tandem bromodomains of TAF1 (human) (P21675 whole entry): as the sequence (P21675 whole entry) above
Sequence of bromodomain of CREBBP, tag removed (ITC) (Q92793 1081-1197): as the sequence (Q92793 1081-1197) above
Sequence of CECR2 bromodomain (human) (Q9BXF3 424-538): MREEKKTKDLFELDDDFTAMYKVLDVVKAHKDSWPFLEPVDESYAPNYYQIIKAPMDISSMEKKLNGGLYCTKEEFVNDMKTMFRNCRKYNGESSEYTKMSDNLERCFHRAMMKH
Sequence of BAZ2B bromodomain (human) (Q9UIF8 whole entry): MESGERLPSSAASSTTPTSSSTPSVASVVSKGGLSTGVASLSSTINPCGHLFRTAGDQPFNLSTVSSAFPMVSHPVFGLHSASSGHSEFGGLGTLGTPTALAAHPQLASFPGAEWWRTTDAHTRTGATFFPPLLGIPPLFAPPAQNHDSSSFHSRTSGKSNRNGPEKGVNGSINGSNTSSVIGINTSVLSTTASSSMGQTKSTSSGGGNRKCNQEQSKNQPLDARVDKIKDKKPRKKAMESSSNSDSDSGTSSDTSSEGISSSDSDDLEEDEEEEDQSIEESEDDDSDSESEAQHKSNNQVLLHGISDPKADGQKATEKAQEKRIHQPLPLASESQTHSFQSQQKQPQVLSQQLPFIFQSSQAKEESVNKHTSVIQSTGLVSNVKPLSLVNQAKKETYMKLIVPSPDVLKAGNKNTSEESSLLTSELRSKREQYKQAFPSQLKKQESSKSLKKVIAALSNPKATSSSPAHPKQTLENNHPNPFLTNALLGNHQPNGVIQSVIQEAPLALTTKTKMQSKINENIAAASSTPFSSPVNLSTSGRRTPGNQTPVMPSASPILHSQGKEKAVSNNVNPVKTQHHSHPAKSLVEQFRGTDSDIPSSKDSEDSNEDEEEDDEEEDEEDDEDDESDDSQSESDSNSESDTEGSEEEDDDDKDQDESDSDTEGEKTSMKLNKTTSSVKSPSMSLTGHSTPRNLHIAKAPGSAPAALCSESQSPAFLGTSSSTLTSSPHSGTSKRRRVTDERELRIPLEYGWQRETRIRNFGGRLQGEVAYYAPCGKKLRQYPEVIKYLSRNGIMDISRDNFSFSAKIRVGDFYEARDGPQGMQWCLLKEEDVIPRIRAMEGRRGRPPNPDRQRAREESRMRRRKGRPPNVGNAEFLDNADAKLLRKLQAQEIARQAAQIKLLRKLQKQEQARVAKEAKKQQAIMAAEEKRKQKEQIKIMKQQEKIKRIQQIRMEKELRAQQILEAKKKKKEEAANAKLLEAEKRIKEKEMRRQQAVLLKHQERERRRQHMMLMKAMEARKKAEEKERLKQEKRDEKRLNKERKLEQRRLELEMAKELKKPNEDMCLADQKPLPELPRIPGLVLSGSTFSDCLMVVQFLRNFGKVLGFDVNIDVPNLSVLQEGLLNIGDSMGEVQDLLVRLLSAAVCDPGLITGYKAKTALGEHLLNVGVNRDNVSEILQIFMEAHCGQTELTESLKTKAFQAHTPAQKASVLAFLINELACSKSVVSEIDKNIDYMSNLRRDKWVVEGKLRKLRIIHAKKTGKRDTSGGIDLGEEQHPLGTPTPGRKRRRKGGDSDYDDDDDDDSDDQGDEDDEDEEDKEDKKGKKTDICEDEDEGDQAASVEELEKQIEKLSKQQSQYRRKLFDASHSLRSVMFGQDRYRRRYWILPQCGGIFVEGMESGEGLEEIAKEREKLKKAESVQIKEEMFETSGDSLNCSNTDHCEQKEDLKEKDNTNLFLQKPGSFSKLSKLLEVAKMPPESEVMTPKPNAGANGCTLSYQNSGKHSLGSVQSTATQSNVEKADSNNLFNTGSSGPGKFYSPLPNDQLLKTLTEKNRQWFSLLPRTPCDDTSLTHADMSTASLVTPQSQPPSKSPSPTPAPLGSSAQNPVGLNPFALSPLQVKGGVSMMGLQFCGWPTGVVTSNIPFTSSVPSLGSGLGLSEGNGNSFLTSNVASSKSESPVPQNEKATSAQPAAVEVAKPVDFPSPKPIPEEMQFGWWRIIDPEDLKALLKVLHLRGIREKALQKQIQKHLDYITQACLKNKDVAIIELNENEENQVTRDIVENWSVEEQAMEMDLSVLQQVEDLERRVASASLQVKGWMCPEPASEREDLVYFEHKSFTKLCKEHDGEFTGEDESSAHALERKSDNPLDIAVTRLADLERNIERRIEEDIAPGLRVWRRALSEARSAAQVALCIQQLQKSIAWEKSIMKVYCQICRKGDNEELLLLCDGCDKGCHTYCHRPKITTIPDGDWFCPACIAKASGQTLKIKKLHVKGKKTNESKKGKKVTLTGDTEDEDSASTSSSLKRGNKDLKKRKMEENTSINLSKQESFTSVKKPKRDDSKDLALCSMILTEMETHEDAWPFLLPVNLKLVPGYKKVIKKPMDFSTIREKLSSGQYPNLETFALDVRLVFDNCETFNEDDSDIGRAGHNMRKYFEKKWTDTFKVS

H3K9 peptide KQTARKacSTGGKY
stoichiometry N [1]: 1

H3K9/K14 peptide KQTARKacSTGGKacAPRKQY
Kd [2]: 339 µM
stoichiometry N [2]: 1.02

H3K9/S10/K14 peptide KQTARKacpSTGGKacAPRKQY
Kd [2]: 150 µM
stoichiometry N [2]: 1.05

H3K14 peptide KSTGGKacAPRKQY
Kd [2]: 179 µM
stoichiometry N [2]: 1.01
stoichiometry N [3]: 1.05
stoichiometry N [1]: 1
Kd [4]: 7.6 µM
stoichiometry N [4]: 1
stoichiometry N (PCAF bromodomain (human)): 1.01
Kd [5]: 306 µM

H3S10K14K18 peptide KpSTGGKacAPRKacQY
stoichiometry N [6]: 1

H4K8 peptide RGKGGKacGLGKGY
stoichiometry N [7]: 1
Kd [8]: 211 µM
stoichiometry N [8]: 1

H4K12/16/20 peptide GKacGGAKacRHRKacV
stoichiometry N [9]: 0.5
Kd [10]: 31.4 µM
stoichiometry N [10]: 0.51

bromodomain of CREBBP, tag removed (ITC) (from UniProt Q92793 1081-1197) (domain or fragment)
Kd [11]: 131 µM
Kd [12]: 733 µM

histone H3 N-terminal tail (from UniProt P68431) H3 pT3K4acK9ac peptide
binding against the reference (EP300 bromodomain): gained
binding against the reference [13]: gained

Reference: paper PMC3326523, “Histone Recognition and Large-Scale Structural Analysis of the Human Bromodomain Family” (Cell, 2012)
